The text below walks through data of patent US20140087995A1 (published 2014).

Numbered stars: 1 amine (or outer) side, 2 acyl side, 3 side chain; on linkers, the order of the positions; unused ones are H or OH. Bridge positions count the residues as written; N and C are the ends. Side chains are listed from the residue outwards. Ends that are not written are not given here. * marks the point of attachment. C20 diacid = O=C(O)CCCCCCCCCCCCCCCCCCC(=O)*; γGlu = O=C(O)[C@H](CCC(=O)[*:2])N[*:1]; AEEA = NCCOCCOCC(=O)O

The target of experiment [1] is T1, human calcitonin receptor (human, UniProt P30988 25-474).
T1 sequence (looked up): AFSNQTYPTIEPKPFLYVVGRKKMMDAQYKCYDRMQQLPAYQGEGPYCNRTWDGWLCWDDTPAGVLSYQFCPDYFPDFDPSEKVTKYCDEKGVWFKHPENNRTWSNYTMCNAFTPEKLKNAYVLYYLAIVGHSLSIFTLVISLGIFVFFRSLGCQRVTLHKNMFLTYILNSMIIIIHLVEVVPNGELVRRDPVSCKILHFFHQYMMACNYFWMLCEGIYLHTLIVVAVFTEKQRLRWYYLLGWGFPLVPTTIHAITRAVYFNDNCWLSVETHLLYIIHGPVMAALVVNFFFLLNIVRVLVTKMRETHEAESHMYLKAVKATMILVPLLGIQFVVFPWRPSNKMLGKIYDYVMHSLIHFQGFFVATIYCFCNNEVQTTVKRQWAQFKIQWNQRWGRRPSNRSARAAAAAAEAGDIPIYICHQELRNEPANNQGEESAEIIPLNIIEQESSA
Put plainly: cell-based or functional assay.

For experiment [2], the target named is T2, human amylin receptor (amylin 3(a) receptor: human calcitonin receptor with RAMP-3) (human, UniProt P30988 25-474; O60896 24-148).
T2 sequence (looked up) 1: T1 sequence (looked up)
T2 sequence (looked up) 2: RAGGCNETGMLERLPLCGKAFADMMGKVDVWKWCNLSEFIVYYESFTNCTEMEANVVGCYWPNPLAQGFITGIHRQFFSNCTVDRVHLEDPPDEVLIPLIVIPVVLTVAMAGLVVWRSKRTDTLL
Put plainly: cell-based or functional assay.

B1: N^α1N^α1-[(4S)-4-carboxy-4-(19-carboxynonadecanoylamino)butanoyl]-[Glu14,Arg17,Pro21,Pro27,Glu35]-h-amylin (peptide)
peptide: {C20 diacid-γGlu}-KCNTATCATQRLAEFLRHSSPNFGAIPSSTNVGSETY-NH2
modifications: disulfide 2-7
SMILES: CC[C@H](C)[C@H](NC(=O)[C@H](C)NC(=O)CNC(=O)[C@H](Cc1ccccc1)NC(=O)[C@H](CC(N)=O)NC(=O)[C@@H]1CCCN1C(=O)[C@H](CO)NC(=O)[C@H](CO)NC(=O)[C@H](Cc1c[nH]cn1)NC(=O)[C@H](CCCNC(=N)N)NC(=O)[C@H](CC(C)C)NC(=O)[C@H](Cc1ccccc1)NC(=O)[C@H](CCC(=O)O)NC(=O)[C@H](C)NC(=O)[C@H](CC(C)C)NC(=O)[C@H](CCCNC(=N)N)NC(=O)[C@H](CCC(N)=O)NC(=O)[C@@H](NC(=O)[C@H](C)NC(=O)[C@@H]1CSSC[C@H](NC(=O)[C@H](CCCCN)NC(=O)CC[C@H](NC(=O)CCCCCCCCCCCCCCCCCCC(=O)O)C(=O)O)C(=O)N[C@@H](CC(N)=O)C(=O)N[C@@H]([C@@H](C)O)C(=O)N[C@@H](C)C(=O)N[C@@H]([C@@H](C)O)C(=O)N1)[C@@H](C)O)C(=O)N1CCC[C@H]1C(=O)N[C@@H](CO)C(=O)N[C@@H](CO)C(=O)N[C@H](C(=O)N[C@@H](CC(N)=O)C(=O)N[C@H](C(=O)NCC(=O)N[C@@H](CO)C(=O)N[C@@H](CCC(=O)O)C(=O)N[C@H](C(=O)N[C@@H](Cc1ccc(O)cc1)C(N)=O)[C@@H](C)O)C(C)C)[C@@H](C)O
notes: also called compound 22
Consider B1, for which, in experiment [1], the “Ratio hCT/hAmylin funct.” value stood at 3.8 and the “hCTR funct. EC50” value amounted to 1.03 nM. The “hAmylin-R funct. EC50” value in experiment [2] was 0.27 nM.

B2: N^ε1-[2-[2-[2-[[2-[2-[2-[[(4S)-4-carboxy-4-(19-carboxynonadecanoylamino)butanoyl]amino]ethoxy]ethoxy]acetyl]amino]ethoxy]ethoxy]acetyl]-[Arg17,Pro21,Pro27,Glu35 … (peptide)
peptide: K([AEEA-AEEA-γGlu-C20 diacid])CNTATCATQRLANFLRHSSPNFGAIPSSTNVGSETY-NH2
modifications: disulfide 2-7; N-terminus assumed
SMILES: CC[C@H](C)[C@H](NC(=O)[C@H](C)NC(=O)CNC(=O)[C@H](Cc1ccccc1)NC(=O)[C@H](CC(N)=O)NC(=O)[C@@H]1CCCN1C(=O)[C@H](CO)NC(=O)[C@H](CO)NC(=O)[C@H](Cc1c[nH]cn1)NC(=O)[C@H](CCCNC(=N)N)NC(=O)[C@H](CC(C)C)NC(=O)[C@H](Cc1ccccc1)NC(=O)[C@H](CC(N)=O)NC(=O)[C@H](C)NC(=O)[C@H](CC(C)C)NC(=O)[C@H](CCCNC(=N)N)NC(=O)[C@H](CCC(N)=O)NC(=O)[C@@H](NC(=O)[C@H](C)NC(=O)[C@@H]1CSSC[C@H](NC(=O)[C@@H](N)CCCCNC(=O)COCCOCCNC(=O)COCCOCCNC(=O)CC[C@H](NC(=O)CCCCCCCCCCCCCCCCCCC(=O)O)C(=O)O)C(=O)N[C@@H](CC(N)=O)C(=O)N[C@@H]([C@@H](C)O)C(=O)N[C@@H](C)C(=O)N[C@@H]([C@@H](C)O)C(=O)N1)[C@@H](C)O)C(=O)N1CCC[C@H]1C(=O)N[C@@H](CO)C(=O)N[C@@H](CO)C(=O)N[C@H](C(=O)N[C@@H](CC(N)=O)C(=O)N[C@H](C(=O)NCC(=O)N[C@@H](CO)C(=O)N[C@@H](CCC(=O)O)C(=O)N[C@H](C(=O)N[C@@H](Cc1ccc(O)cc1)C(N)=O)[C@@H](C)O)C(C)C)[C@@H](C)O
notes: also called compound 25
Turning to B2, in experiment [1], the “Ratio hCT/hAmylin funct.” value was determined as 46.2 and the “hCTR funct. EC50” value turned out to be 10 nM. Moreover, the “hAmylin-R funct. EC50” value in experiment [2] stood at 0.217 nM.
